The values below come from patent US20260092093A1 (TJ BIOPHARMA SHANGHAI, published 2026).

Where only a bound is given, the exact number is not on record here.

Broadly, the Kd is the concentration at which binding is half-saturated. A lower Kd goes with a tighter complex. A word on the koff: it is the rate constant with which the complex falls apart. As a reminder, the kon is a measure of how fast the partners come together. A higher kon goes with fast association.

T1: hIL-18Rα ECD-Fc fusion protein (human, UniProt Q13478 22-329)
T1 construct: extracellular domain; captured on Protein A sensor
T1 sequence (looked up): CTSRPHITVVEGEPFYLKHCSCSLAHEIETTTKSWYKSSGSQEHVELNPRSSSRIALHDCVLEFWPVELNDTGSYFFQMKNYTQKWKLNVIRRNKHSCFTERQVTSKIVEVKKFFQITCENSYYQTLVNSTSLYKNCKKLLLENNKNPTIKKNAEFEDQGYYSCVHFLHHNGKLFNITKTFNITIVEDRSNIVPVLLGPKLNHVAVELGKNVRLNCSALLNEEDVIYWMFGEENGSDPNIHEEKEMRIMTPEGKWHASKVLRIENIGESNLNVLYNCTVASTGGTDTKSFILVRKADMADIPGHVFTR

T2: recombinant hIL-18Rα extracellular domain (human, UniProt Q13478 22-329, biotin label (selection) or fluorescent probe (single-clone FACS), sites not given)
T2 construct: extracellular domain; also called hIL-18Rα ECD; hIL-18Rα-ECD
T2 sequence (looked up): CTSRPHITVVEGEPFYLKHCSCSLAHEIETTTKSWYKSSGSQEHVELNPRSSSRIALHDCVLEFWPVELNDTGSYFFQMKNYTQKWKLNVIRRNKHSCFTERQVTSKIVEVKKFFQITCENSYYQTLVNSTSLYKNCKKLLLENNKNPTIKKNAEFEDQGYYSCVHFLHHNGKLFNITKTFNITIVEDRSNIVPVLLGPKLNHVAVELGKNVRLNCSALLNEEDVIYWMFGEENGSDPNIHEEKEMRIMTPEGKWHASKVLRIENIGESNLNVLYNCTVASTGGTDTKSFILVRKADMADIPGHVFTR

B1: IL-18 variant polypeptide LM1 (ligand)
chain: YFPKLKSKLSVIRNLNDQVLFIDQGNRPLFEDMTDSDCRDNAPRTIFIISMYKGSGARGMAVTISVKCEKISTLSCENKIISFKEMNPPDNIKDTKSDIIFFQRSVPGHDNKMQFESSSYEGYFLACEKERDLFKLILKKEDELGDRSIMFTVQNED
notes: soluble, E. coli-made
B2: IL-18 variant polypeptide WM10 (ligand)
chain: YFPKLKSKLSVIRNLNDQVLFIDQGNRPLFEDMTDSDCRDNAPRTIFIISMYKDSQPRGMAVTISVKCEKISTLSCENKIISFKEMNPPDSIKDTKSDIIFFQRSVPGHDNKMQFESSSYEGYFLACEKERDLFKLILKKEDELGDRSIMFTVQNED
notes: soluble, E. coli-made
B3: IL-18 variant polypeptide WM6 (ligand)
chain: YFDKLKSKLSVIRNLNDQVLFIDQGNRPLFEDMTDSDCRDNAPRTIFIISMYKDSQPRGMAVTISVKCEKISTLSCENKIISFKEMNPPDSIKDTKSDIIFFQRSVPGHDNKMQFESSSYEGYFLACEKERDLFKLILKKEDELGDRSIMFTVQNED
notes: soluble, E. coli-made
B4: IL-18 variant polypeptide WM2 (ligand)
chain: YFPKLRSKLSVIRNLNDQVLFIDQGNRPLFEDMTDSDCRDNAPRTIFIISMYKDSQPRGMAVTISVKCEKISTLSCENKIISFKEMNPPDNIKDTESDIIFFQRSVPGHDNKMQFESSSYEGYFLACEKERDLFKLILKKEDELGDRSIMFTVQNED
notes: soluble, E. coli-made
B5: IL-18 variant polypeptide MM4 (ligand)
chain: YFPKLRSKLSVIRNLNDQVLFIDQGNRPLFEDMTDSDCRDNAPRTIFIISMYKLSTIRGMAVTISVKCEKISTLSCENKIISFKEMNPPDGIKDTKSDIIFFQRSVPGHDNKMQFESSSYEGYFLACEKERDLFKLILKKEDELGDRSIMFTVQNED
notes: soluble, E. coli-made
B6: IL-18 variant polypeptide LM4 (ligand)
chain: YFPKLKSKLSVIRNLNDQVLFIDQGNRPLFEDMTDSDCRDNAPRTIFIISMYKHSYSRGMAVTISVKCEKISTLSCENKIISFKEMNPPDNIKDTKSDIIFFQRSVPGHDNKMQFESSSYEGYFLACEKERDLFKLILKKEDELGDRSIMFTVQNED
notes: soluble, E. coli-made
B7: IL-18 variant polypeptide MM5 (ligand)
chain: YFGKLGSKLSVIRNLNDQVLFIDQGNRPLFEDMTDSDCRDNAPRTIFIISMYKLSTERGMAVTISVKCEKISTLSCENKIISFKEMNPPDGIKDTKSDIIFFQSSVPGHDNKMQFESSSYEGYFLACEKERDLFKLILKKEDELGDRSIMFTVQNED
notes: soluble, E. coli-made
B8: IL-18 variant polypeptide WM8 (ligand)
chain: YFPKLRSKLSVIRNLNDQVLFIDQGNRPLFEDMTDSDCRDNAPRTIFIISMYKDSQPRGMAVTISVKCEKISTLSCENKIISFKEMNPPDSIKDTKSDIIFFQRSVPGHDNKMQFESSSYEGYFLACEKERDLFKLILKKEDELGDRSIMFTVQNED
notes: soluble, E. coli-made
B9: IL-18 variant polypeptide LM3 (ligand)
chain: YFPKLRSKLSIIRNLNDQVLFIDQGNRPLFEDMTDSDCRDNAPRTIFIISMYKGSGARGMAVTISVKCEKISTLSCENKIISFKEMNPPDGIKDTKSDIIFFQRSVPGHDNKMQFESSSYEGYFLACEKERDLFKLILKKEDELGDRSIMFTVQNED
notes: soluble, E. coli-made
B10: IL-18 variant polypeptide LM2 (ligand)
chain: YFPKLRSKLSVIRNLNDQVLFIDQGNRPLFEDMTDSDCRDNAPRTIFIISMYKLSGSRGMAVTISVKCEKISTLSCENKIISFKEMNPPDVIKDTKSDIIFFQRSVPGHDNKMQFESSSYEGYFLACEKERDLFKLILKKEDELGDRSIMFTVQNED
notes: soluble, E. coli-made
B11: IL-18 variant polypeptide LM5 (ligand)
chain: YFGKLRSKLSVIRNLNDQVLFIDQGNRPLFEDMTDSDCRDNAPRTIFIISMYKWSSQRGMAVTISVKCEKISTLSCENKIISFKEMNPPDNIKDTKSDIIFFQRSVPGHDNKMQFESSSYEGYFLACEKERDLFKLILKKEDELGDRSIMFTVQNED
notes: soluble, E. coli-made
B12: SEQ ID NO 13 (ligand)
chain: YFPKLRSKLSVIRNLNDQVLFIDQGNRPLFEDMTDSDCRDNAPRTIFIISMYKWSKTRGMAVTISVKCEKISTLSCENKIISFKEMNPPDVIKDTKSDIIFFQYSVPGHDNKMQFESSSYEGYFLACEKERDLFKLILKKEDELGDRSIMFTVQNED
B13: SEQ ID NO 6 (ligand)
chain: YFPKLSSKLSVIRNLNDQVLFIDQGNRPLFEDMTDSDCRDNAPRTIFIISMYKWSPWRGMAVTISVKCEKISTLSCENKIISFKEMNPPDDIKDTKSDIIFFQRSVPGHDNKMQFESSSYEGYFLACEKERDLFKLILKKEDELGDRSIMFTVQNED
B14: SEQ ID NO 5 (ligand)
chain: YFPKLRSKLSVIRNLNDQVLFIDQGNRPLFEDMTDSDCRDNAPRTIFIISMYKHSTVRGMAVTISVKCEKISTLSCENKIISFKEMNPPDVIKDTKSDIIFFQRSVPGHDNKMQFESSSYEGYFLACEKERDLFKLILKKEDELGDRSIMFTVQNED
B15: IL-18 variant polypeptide MM1 (ligand)
chain: YFPKLKSKLSVIRNLNDQVLFIDQGNRPLFEDMTDSDCRDNAPRTIFIISMYKLSTQRGMAVTISVKCEKISTLSCENKIISFKEMNPPDVIKDTKSDIIFFQRSVPGHDNKMQFESSSYEGYFLACEKERDLFKLILKKEDELGDRSIMFTVQNED
B16: IL-18 variant polypeptide M8 (ligand)
chain: YFPKLRSKLSVIRNLNDQVLFIDQGNRPLFEDMTDSDCRDNAPRTIFIISMYKWSPARGMAVTISVKCEKISTLSCENKIISFKEMNPPDAIKDTKSDIIFFQLSVPGHDNKMQFESSSYEGYFLACEKERDLFKLILKKEDELGDRSIMFTVQNED
B17: IL-18 variant polypeptide M36 (ligand)
chain: YFPKLSSKLSVIRNLNDQVLFIDQGNRPLFEDMTDSDCRDNAPRTIFIISMYKASDQRGMAVTISVKCEKISTLSCENKIISFKEMNPPDGIKDTKSDIIFFQRSVPGHDNKMQFESSSYEGYFLACEKERDLFKLILKKEDELGDRSIMFTVQNED
B18: SEQ ID NO 7 (ligand)
chain: YFPKLKSKLSVIRNLNDQVLFIDQGNRPLFEDMTDSDCRDNAPRTIFIISMYKHSTVRGMAVTISVKCEKISTLSCENKIISFKEMNPPDVIKDTKSDIIFFQRSVPGHDNKMQFESSSYEGYFLACEKERDLFKLILKKEDELGDRSIMFTVQNED
B19: SEQ ID NO 10 (ligand)
chain: YFTKLKSKLSVIRNLNDQVLFIDQGNRPLFEDMTDSDCRDNAPRTIFIISMYKWSSDRGMAVTISVKCEKISTLSCENKIISFKEMNPPDAIKDTKSDIIFFQVSVPGHDNKMQFESSSYEGYFLACEKERDLFKLILKKEDELGDRSIMFTVQNED
B20: SEQ ID NO 14 (ligand)
chain: YFPKLRSKLSVIRNLNDQVLFIDQGNRPLFEDMTDSDCRDNAPRTIFIISMYKYSTARGMAVTISVKCEKISTLSCENKIISFKEMNPPDVIKDTKSDIIFFQHSVPGHDNKMQFESSSYEGYFLACEKERDLFKLILKKEDELGDRSIMFTVQNED
B21: IL-18 variant polypeptide M6 (ligand)
chain: YFPKLRSKLSVIRNLNDQVLFIDQGNRPLFEDMTDSDCRDNAPRTIFIISMYKWSTPRGMAVTISVKCEKISTLSCENKIISFKEMNPPDVIKDTKSDIIFFQTSVPGHDNKMQFESSSYEGYFLACEKERDLFKLILKKEDELGDRSIMFTVQNED

The first test deals with T1, hIL-18Rα ECD-Fc fusion protein. The experiment in a line: BLI (Octet RED96), hIL-18Rα ECD-Fc on Protein A sensor. How it is done: The affinities of IL-18 variant polypeptides for hIL-18Rα were assessed by Biolayer Interferometry (BLI) on Octet RED96 using Protein A sensor coated with hIL-18Rα ECD-Fc fusion protein, and WT hIL-18 was used as a control.
On to B1, for which the Kd amounted to 86.2 nM, the “Response (nm)” value is 0.0618 nm, the koff was found to be 0.047 s⁻¹ and the kon is 545000 M⁻¹ s⁻¹.
As to B2, the Kd is 12.9 nM, the “Response (nm)” value was less than 0.02 nm, the off-rate (koff) is 0.007 s⁻¹ and the kon is 543000 M⁻¹ s⁻¹.
For B3, in that order: 10.1 nM, 0.304 nm, 0.00199 s⁻¹ and 196000 M⁻¹ s⁻¹.
B4: the “Response (nm)” value is less than 0.02 nm.
Take B5: the Kd came out at 9.82 nM, the “Response (nm)” value came out at 0.0238 nm, the koff turned out to be 0.0375 s⁻¹ and the kon came to 3.82e+06 M⁻¹ s⁻¹.
On the same counts, the results for B6 are 4.17 nM, 0.0262 nm, 0.0169 s⁻¹ and 4.06e+06 M⁻¹ s⁻¹.
On the same counts, the results for B7 are 104 nM, 0.0326 nm, 0.077 s⁻¹ and 743000 M⁻¹ s⁻¹.
For the molecule B8, the “Response (nm)” value was less than 0.02 nm.
For B9, the Kd was 14.6 nM, the “Response (nm)” value was determined as 0.0422 nm, the off-rate constant (koff) was found to be 0.0328 s⁻¹ and the kon was determined as 2.24e+06 M⁻¹ s⁻¹.
For B10, in that order: 37.9 nM, 0.0338 nm, 0.052 s⁻¹ and 1.37e+06 M⁻¹ s⁻¹.
For B11, in that order: 19.6 nM, 0.038 nm, 0.0411 s⁻¹ and 2.1e+06 M⁻¹ s⁻¹.

In a further test the target is T2, recombinant hIL-18Rα extracellular …. The experiment in a line: single-clone FACS, yeast display, 10 nM labelled hIL-18Rα ECD. How it is done:
Following the screens described in Example 2, single clone FACS analysis was performed to verify the binding of selected yeast cell surface-expressed IL-18 variant polypeptides from Round 4 and Round 5 to 10 nM hIL-18Rα-ECD. Briefly, each yeast clone at the same density was incubated with 10 nM IL-18Rα-ECD labeled by fluorescent probe, respectively, followed by washing step. Then the ratio of fluorescent positive IL-18Rα ECD binding yeasts in the population of each clone were analyzed.
B12: the “% of fluorescence positive cells” value was 93.2%.
Same read-out and setting: for B13 the value was 95.5%; for B14, 95.6%; for B15, 91.6%.
The same measure, in the same setting: in the case of B16 it was 73.4%; in that of B17, 14.8%; in that of B18, 95.5%.
In the case of B19, the “% of fluorescence positive cells” value turned out to be 94.8%.
Take B20: the “% of fluorescence positive cells” value was found to be 93.2%.
Same read-out and setting: in the case of B21 it was 79%.
